Measurements from patent publication US20180057542A1 (University of Washington, published 2018).
Changes are numbered by the printed parent chain. In names and notes the source's numbering stands.

T1: urea-expanded bacteriophage lambda capsid shell (bacteriophage lambda, UniProt P03713 1-341; P03710 23-533)
T1 construct: also called expanded capsid; expanded capsid lattice
T1 sequence 1: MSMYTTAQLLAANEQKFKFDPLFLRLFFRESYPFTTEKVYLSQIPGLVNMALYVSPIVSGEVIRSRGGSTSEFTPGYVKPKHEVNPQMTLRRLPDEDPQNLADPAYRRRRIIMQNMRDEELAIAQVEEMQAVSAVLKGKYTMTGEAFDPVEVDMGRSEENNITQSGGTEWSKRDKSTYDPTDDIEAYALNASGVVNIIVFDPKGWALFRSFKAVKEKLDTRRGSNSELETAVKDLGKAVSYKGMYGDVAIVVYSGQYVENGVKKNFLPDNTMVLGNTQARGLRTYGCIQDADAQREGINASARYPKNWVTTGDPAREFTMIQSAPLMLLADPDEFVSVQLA
T1 sequence 2: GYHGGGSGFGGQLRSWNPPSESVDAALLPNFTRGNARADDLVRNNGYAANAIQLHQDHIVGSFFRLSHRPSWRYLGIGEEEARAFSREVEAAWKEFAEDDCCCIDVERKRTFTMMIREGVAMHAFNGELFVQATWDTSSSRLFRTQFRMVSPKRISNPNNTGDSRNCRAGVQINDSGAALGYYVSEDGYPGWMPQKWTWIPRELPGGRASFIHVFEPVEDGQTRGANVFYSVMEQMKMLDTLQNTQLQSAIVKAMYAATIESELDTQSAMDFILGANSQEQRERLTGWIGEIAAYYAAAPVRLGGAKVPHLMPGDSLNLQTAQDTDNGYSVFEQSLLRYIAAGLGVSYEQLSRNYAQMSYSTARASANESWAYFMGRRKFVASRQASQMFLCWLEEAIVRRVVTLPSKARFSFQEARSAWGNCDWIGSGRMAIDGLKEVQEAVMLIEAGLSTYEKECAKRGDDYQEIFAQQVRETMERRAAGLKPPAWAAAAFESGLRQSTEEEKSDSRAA

B1: wild-type bacteriophage lambda gpD decoration protein (other)
chain: MTSKETFTHYQPQGNSDPAHTATAPGGLSAKAPAMTPLMLDTSSRKLVAWDGTTDGAAVGILAVAADQTSTTLTFYKSGTFRYEDVLWPEAASDETKKRTAFAGTAISIV
notes: Monomer in solution; adds to the expanded capsid as trimer spikes at the 140 three-fold axes (420 copies per shell); also called gpD-WT; gpD-wt
B2: gpD(S42C) (other)
chain: B1 chain with S43C
B3: gpD(S42C::sMannose) (other)
chain: HHHHHHMTSKETFTHYQPQGNSDPAHTATAPGGLSAKAPAMTPLMLDTCSRKLVAWDGTTDGAAVGILAVAADQTSTTLTFYKSGTFRYEDVLWPEAASDETKKRTAFAGTAISIV
modifications: 6'-maleimidohexanamido-polyethyleneglycol mannoside (sMannose) on Cys42 (numbering without the N-terminal methionine)
notes: The presence of the H6 tag is therefore not certain; also called gpD-mannose; gpD glycoprotein
B4: H6-gpD-GFP (other)
chain: B3 chain with C49S
notes: HIS-tagged fusion of an N-terminal gpD domain and a C-terminal GFP domain; also called gpD-Green Fluorescent Protein; GFP-tagged gpD

Assays:
Concanavalin A = target: T2, Concanavalin A (UniProt P02866 30-281); assay: agglutination assay (absorbance at 350 nm) of decorated capsids with Concanavalin A
T2 construct: Used at 1 uM in the agglutination assay; It recognises the mannose conjugated to gpD(S42C); also called Con A; ConA

[1] = target: T1, urea-expanded bacteriophage lambda …; assay: in vitro capsid decoration, SDS-PAGE of isolated decorated capsids
[2] = target: T1, urea-expanded bacteriophage lambda …; assay: SDS-PAGE of capsids decorated with gpD-WT alone and separated from unreacted protein

Row | Binder | binding result (Concanavalin A) | Surface Density (% relative to gpD) [1] | ratio of major capsid protein (gpE) to gpD-WT in the decorated particles [2]
1 | B1 | no binding (tested: 1 µM ConA, 1 µM gpD equivalent) | 100 % relative to gpD | ~1 ratio gpE:gpD-WT
2 | B2 | no binding (tested: 1 µM ConA, 1 µM gpD equivalent) | 90 % relative to gpD | 
3 | B3 |  | 82 % relative to gpD | 
4 | B4 |  | 77 % relative to gpD | 
